A short description of this data set: amyloid nucleation score (Sup35N fusion, yeast selection) (log enrichment); library NNK3; higher = more nucleation; inactive = no reads after selection. The method, boiled down: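 The nucleation score is the DiMSum log enrichment of output over input reads, centred on the mode score of non-aggregating sequences. Only sequences with 100 or more input reads were scored, using Illumina sequencing of input and output plasmid inserts. Psi-negative yeast expressing Sup35N fused to peptides of 20 random codons were induced 24 hours with 100 μM copper sulfate and grown 7 days at 30°C on medium lacking adenine and uracil.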

From the supplement of paper PMC12042874 come the findings set out here.

± gives the uncertainty stated by the source.

On to RLSGVIGT, for which the amyloid nucleation score result is “inactive”.

As to TYLVMS, the amyloid nucleation score entry was “inactive”.

Regarding WLCPYARFIRNRSLLFCMFW, the amyloid nucleation score entry was “inactive”.

On to WPMMATLQYHDLLLAFLFRK, for which the amyloid nucleation score result was “inactive”.

Substance TITFSWLAYAVGMQPDNNEV registered an amyloid nucleation score of 1.26 ± 0.12.

Turning to YRLQSLNPPISPVNHTNCSS, the amyloid nucleation score result was “inactive”.

For the substance SRRNTFAVGNFNSVLLN, the amyloid nucleation score entry was “inactive”.

For the substance LLMLTEQ, the amyloid nucleation score entry is “inactive”.

In the case of SLSIMYIFTWDGPYIECTFY, the amyloid nucleation score came to 2.71 ± 0.069.

As for RWAELTEQTCS, the amyloid nucleation score result was “inactive”.

For the substance SKWAYIAFGVFVLLFALFNK, the amyloid nucleation score is -0.161 ± 0.27.

Take YWVLRFRSSCGYSRMRLGPR: the amyloid nucleation score entry was “inactive”.

Turning to SQSFYLFLGQRSRTY, the amyloid nucleation score was determined as 1.33 ± 0.11.

In the case of SNVVSTS, the amyloid nucleation score result was “inactive”.

Take RVTDLRYIKMFVCIILCTGL: the amyloid nucleation score result is “inactive”.

Take MVRMDHCQVEDSMVTNVD: the amyloid nucleation score result was “inactive”.

As to RVNRSLGIVSIECRWVVIRG, the amyloid nucleation score entry was “inactive”.

As for LSLNMVTDGIDDNGGNG, the amyloid nucleation score entry was “inactive”.

Take QLSSYFRGLLFQCHSPQHGY: the amyloid nucleation score entry is “inactive”.

In the case of SRCFLKKYCFLMTSILVRGI, the amyloid nucleation score entry was “inactive”.

Turning to NLIWTVHLVVTSVISDLCVG, the amyloid nucleation score entry is “inactive”.

Turning to HYHSWFPTYSYSYYV, the amyloid nucleation score was determined as 2.71 ± 0.08.

With CISFPDDWRSHTI, the amyloid nucleation score result is “inactive”.

As for CGGANVLYRVQYDPWRS, the amyloid nucleation score entry was “inactive”.

For the substance TIEQCGLS, the amyloid nucleation score entry is “inactive”.

MPIGTSSYFFSQKICHYTSR came in with an amyloid nucleation score of 1.77 ± 0.09.

Consider PTNFD, for which the amyloid nucleation score entry was “inactive”.

LSGANYLLIRNEGM: the amyloid nucleation score entry was “inactive”.

In the case of WYSNLMCTWISDDKTWQRIR, the amyloid nucleation score entry was “inactive”.

For YSLNCYYFSLGLN, the amyloid nucleation score entry is “inactive”.

With EGTRLTSYM, the amyloid nucleation score result was “inactive”.

With QKIIVSR, the amyloid nucleation score result was “inactive”.

In the case of FCVIMSM, the amyloid nucleation score result is “inactive”.

Turning to PENDRNMLLVSVIVPRYIAT, the amyloid nucleation score result was “inactive”.

For the substance WSCNISYTLLSMGRRLYSRR, the amyloid nucleation score entry was “inactive”.

Turning to CPYALMWSLSYSWSFPYRMS, the amyloid nucleation score stood at 0.286 ± 0.56.

Regarding HNLHSYEHRVRTSQAV, the amyloid nucleation score entry was “inactive”.

For TDELYWLKDFLYGFYNMKSP, the amyloid nucleation score result was “inactive”.

SFIIYCPVKKPQIVFHRLPS yielded an amyloid nucleation score of 2.36 ± 0.056.

Consider KDLRYTVFEVWDKYWPLTGL, for which the amyloid nucleation score entry is “inactive”.

Turning to GATVLLSNFSVCPHMARSSG, the amyloid nucleation score result was “inactive”.

Take WYCVAEYGHFKCPSRKYVFG: the amyloid nucleation score entry is “inactive”.

For AEYQPFRQRHVL, the amyloid nucleation score result was “inactive”.

LDNISVLIIFL came in with an amyloid nucleation score of 1.34 ± 0.11.

EIRMRMIKRFVYD returned an amyloid nucleation score of 1.16 ± 0.17.

For AFMNWVARRKTRWGGLYGGN, the amyloid nucleation score result is “inactive”.

In the case of LMKSMSNLLYADLKEYSQVG, the amyloid nucleation score result is “inactive”.

HVFPVIAPYRLMLNLKWFVY: the amyloid nucleation score entry was “inactive”.

INYGTRQCVVQCIIVVCSLG had an amyloid nucleation score of 2.17 ± 0.068.

Consider VVEIMDLS, for which the amyloid nucleation score entry is “inactive”.

With TSPNYTGPMNSCLRAWLWDR, the amyloid nucleation score result is “inactive”.

Regarding WSRSSV, the amyloid nucleation score result was “inactive”.

On to FLEWEGFRVCIENHMELLRF, for which the amyloid nucleation score result is “inactive”.

Consider FCGKLSCCFIRLAELFLVGK, for which the amyloid nucleation score result was “inactive”.

Consider TMGVSLHHIKGPFWSVIYCI, for which the amyloid nucleation score is 0.481 ± 0.32.

NVLYLQLRPMNLCEANSEIG: the amyloid nucleation score entry is “inactive”.

Take FDNKFKHSYYDTLAA: the amyloid nucleation score entry is “inactive”.

For FELPMHTGV, the amyloid nucleation score entry was “inactive”.

With TELFALGYRSFCARTCATHD, the amyloid nucleation score result is “inactive”.

On to PVAMAYAVSSVVDMASN, for which the amyloid nucleation score entry was “inactive”.

In the case of IFPFFVVFGFDTYAGI, the amyloid nucleation score entry was “inactive”.

Consider LRARPLLITFGVEWGSASDP, for which the amyloid nucleation score was found to be 0.465 ± 0.22.

As for RDSVNFTSNCCSVGFNTFNS, the amyloid nucleation score turned out to be 2.67 ± 0.053.

LAKCVSVHSIYIHDSICPVG: the amyloid nucleation score result was “inactive”.

For MGHDCHRDW, the amyloid nucleation score result was “inactive”.

LCALP: the amyloid nucleation score result was “inactive”.

PVKLC: the amyloid nucleation score result is “inactive”.

KSYISVRK returned an amyloid nucleation score of 0.57 ± 0.18.

Take SCASAFKKVLVCSNCSGRFS: the amyloid nucleation score is -0.133 ± 0.66.

Substance YVNECFSVSLICCYMLFYN yielded an amyloid nucleation score of 1.52 ± 0.072.

As for NGDMKARTFHTRDFKFGVPR, the amyloid nucleation score entry was “inactive”.

In the case of WENCKFWRTLPISVHEGHLD, the amyloid nucleation score result was “inactive”.

In the case of FFLIDYIYWVGIFNYSLILV, the amyloid nucleation score result was “inactive”.

Regarding KSRTIQECMAATYVSVFECF, the amyloid nucleation score entry was “inactive”.

In turn, GQEGSRN displayed an amyloid nucleation score of 0.186 ± 0.53.

In turn, PTAESPLMPFNA registered an amyloid nucleation score of -0.478 ± 0.69.

For the substance FAYLFPCMLLPRSLFAFRIN, the amyloid nucleation score entry was “inactive”.

For the substance YKVKIPMVCAVISGKSTWVG, the amyloid nucleation score entry is “inactive”.

With CSASAYDSVIIDRIIYLIRG, the amyloid nucleation score result was “inactive”.

For SYFFVIQGQLGCITGVDFIW, the amyloid nucleation score result was “inactive”.

Turning to YYLSLHR, the amyloid nucleation score result was “inactive”.

As for VVTVARERYIVF, the amyloid nucleation score result is “inactive”.

As to HNVFST, the amyloid nucleation score entry is “inactive”.

On to ILSNINFVRNSFCYYMINFI, for which the amyloid nucleation score result is “inactive”.

For GTQCWLILCADNLNVLGIGL, the amyloid nucleation score was 2.58 ± 0.065.

Take VNTATCYQ: the amyloid nucleation score result was “inactive”.

As for RRVQKERSLKC, the amyloid nucleation score result is “inactive”.

In the case of RHLPQESKRSSVAAISLM, the amyloid nucleation score entry was “inactive”.

Take LSNQLKDEYHCMWMWWVCPN: the amyloid nucleation score worked out at 1.29 ± 0.13.

Consider QWFVRNFLFNPNALRYFRSS, for which the amyloid nucleation score result was “inactive”.

With KNPTILAFSLGVRGETNRCV, the amyloid nucleation score result was “inactive”.

Consider YKGFKRIGLEGQFVSSYLFY, for which the amyloid nucleation score result was “inactive”.

Consider NRTMLFEEKYVG, for which the amyloid nucleation score entry is “inactive”.

On to MWFHLSYMAIFNGVSMQDVC, for which the amyloid nucleation score result was “inactive”.

Consider GRNRHTYDRLYCPFVRSLIV, for which the amyloid nucleation score entry was “inactive”.

Turning to SLMYKCLINSILY, the amyloid nucleation score was determined as 1.97 ± 0.051.

VYWHVWVALSCFMPANIGVV: the amyloid nucleation score entry was “inactive”.

Turning to YYWTKGGFKEITI, the amyloid nucleation score result is “inactive”.

On to EDIGGCECRYSIKDVY, for which the amyloid nucleation score result was “inactive”.

SVGVFVYLKLINLIVLGGRG: the amyloid nucleation score entry is “inactive”.

As for LYLGLFVSWCSLKSTAWFGK, the amyloid nucleation score entry was “inactive”.

Turning to VVLDSVVWGFDELSRLMSGA, the amyloid nucleation score result is “inactive”.

ACSVHFFHARW yielded an amyloid nucleation score of 1.49 ± 0.14.

As for AHFISFNRYHVARFINAHRL, the amyloid nucleation score entry is “inactive”.

As for CLKGNFIVNSNVFKCVLWYS, the amyloid nucleation score result was “inactive”.

For SALVLPRSVSVDLIGVWDFK, the amyloid nucleation score entry is “inactive”.

Regarding FSFMLSDTGLSVFSSVYDEA, the amyloid nucleation score result is “inactive”.

Turning to LLAVLALVGLC, the amyloid nucleation score entry is “inactive”.

In turn, KCIQWTGRDAYFEICYKQLD yielded an amyloid nucleation score of 1.12 ± 0.11.

NLLSLVFIRWGNYRRFKMFR gave an amyloid nucleation score of 0.77 ± 0.22.

For ATFQSRFFCCRSRGGTLGCD, the amyloid nucleation score entry was “inactive”.

GDSFCFQLGVMCINHVRWY: the amyloid nucleation score came to 1.78 ± 0.09.

Regarding ETRFWNLIHADYIRMIGAGF, the amyloid nucleation score result is “inactive”.

In the case of RGWYINTVGYRTRAGHNLCG, the amyloid nucleation score entry is “inactive”.

As to CYSPQFVCYATGHVKSDLML, the amyloid nucleation score result was “inactive”.

Turning to INTGQMQSAYETNLVMRKLA, the amyloid nucleation score entry was “inactive”.

With NRSIIVIWWNSRSSSNSWVG, the amyloid nucleation score came out at 2.1 ± 0.072.

Regarding YCDLY, the amyloid nucleation score result was “inactive”.

In the case of AVTSVSWLIIIDGALRSVKG, the amyloid nucleation score result was “inactive”.

IGVYWVLPPGFFGWQNTLMI yielded an amyloid nucleation score of 0.161 ± 0.56.

For the substance NCLFWSEVRFHVMCFCDWLL, the amyloid nucleation score entry was “inactive”.

Regarding LFFSNT, the amyloid nucleation score entry is “inactive”.

As for NVYMRSYKIRSCMTFRTLAL, the amyloid nucleation score result was “inactive”.

QLMDLTGFRRSSVYVLVCDF: the amyloid nucleation score result is “inactive”.

With MGYPTISFCFNVYAFSVRIV, the amyloid nucleation score worked out at 0.697 ± 0.2.

Regarding QYRDSYANSSQNPFHCFFNL, the amyloid nucleation score entry is “inactive”.

In the case of RCIYTMVWVTNVNMVRRTGA, the amyloid nucleation score amounted to 1.69 ± 0.084.

GAMNVESLSMFMRVYYVPYR: the amyloid nucleation score entry was “inactive”.

Regarding IFYDNADTSKMNHISH, the amyloid nucleation score entry is “inactive”.

In the case of KWSKILAPFILFLKLKSNCS, the amyloid nucleation score result is “inactive”.

Consider KVLASCLSHFVDPNLEVSFH, for which the amyloid nucleation score result was “inactive”.
